Data as given in patent US8936925B2, “Reconstitution of 5-enolpyruvylshikimate-3-phosphate synthase activity by fragment complementation” (priority 2004, dated 2015).

B1: C183: E. coli EPSPS C-terminal fragment, residue 183 to C-terminus (protein, UniProt P0A6D3 183-427, looked up, fragment)
chain: APEDTVIRIKGDLVSKPYIDITLNLMKTFGVEIENQHYQQFVVKGGQSYQSPGTYLVEGDASSASYFLAAAAIKGGTVKVTGIGRNSMQGDIRFADVLEKMGATICWGDDYISCTRGELNAIDMDMNHIPDAAMTIATAALFAKGTTTLRNIYNWRVKETDRLFAMATELRKVGAEVEEGHDYIRITPPEKLNFAEIATYNDHRMAMCFSLVALSDTPVTILDPKCTAKTFPDYFEQLARISQAA
B2: C166: E. coli EPSPS C-terminal fragment, residue 166 to C-terminus (protein, UniProt P0A6D3 166-427, looked up, fragment)
chain: GSVSSQFLTALLMTAPLAPEDTVIRIKGDLVSKPYIDITLNLMKTFGVEIENQHYQQFVVKGGQSYQSPGTYLVEGDASSASYFLAAAAIKGGTVKVTGIGRNSMQGDIRFADVLEKMGATICWGDDYISCTRGELNAIDMDMNHIPDAAMTIATAALFAKGTTTLRNIYNWRVKETDRLFAMATELRKVGAEVEEGHDYIRITPPEKLNFAEIATYNDHRMAMCFSLVALSDTPVTILDPKCTAKTFPDYFEQLARISQAA
B3: C86: E. coli EPSPS C-terminal fragment, residue 86 to C-terminus (protein, UniProt P0A6D3 86-427, looked up, fragment)
chain: GALELFLGNAGTAMRPLAAALCLGSNDIVLTGEPRMKERPIGHLVDALRLGGAKITYLEQENYPPLRLQGGFTGGNVDVDGSVSSQFLTALLMTAPLAPEDTVIRIKGDLVSKPYIDITLNLMKTFGVEIENQHYQQFVVKGGQSYQSPGTYLVEGDASSASYFLAAAAIKGGTVKVTGIGRNSMQGDIRFADVLEKMGATICWGDDYISCTRGELNAIDMDMNHIPDAAMTIATAALFAKGTTTLRNIYNWRVKETDRLFAMATELRKVGAEVEEGHDYIRITPPEKLNFAEIATYNDHRMAMCFSLVALSDTPVTILDPKCTAKTFPDYFEQLARISQAA
B4: C155: E. coli EPSPS C-terminal fragment, residue 155 to C-terminus (protein, UniProt P0A6D3 155-427, looked up, fragment)
chain: GGFTGGNVDVDGSVSSQFLTALLMTAPLAPEDTVIRIKGDLVSKPYIDITLNLMKTFGVEIENQHYQQFVVKGGQSYQSPGTYLVEGDASSASYFLAAAAIKGGTVKVTGIGRNSMQGDIRFADVLEKMGATICWGDDYISCTRGELNAIDMDMNHIPDAAMTIATAALFAKGTTTLRNIYNWRVKETDRLFAMATELRKVGAEVEEGHDYIRITPPEKLNFAEIATYNDHRMAMCFSLVALSDTPVTILDPKCTAKTFPDYFEQLARISQAA
B5: C185: E. coli EPSPS C-terminal fragment, residue 185 to C-terminus (protein, UniProt P0A6D3 185-427, looked up, fragment)
chain: EDTVIRIKGDLVSKPYIDITLNLMKTFGVEIENQHYQQFVVKGGQSYQSPGTYLVEGDASSASYFLAAAAIKGGTVKVTGIGRNSMQGDIRFADVLEKMGATICWGDDYISCTRGELNAIDMDMNHIPDAAMTIATAALFAKGTTTLRNIYNWRVKETDRLFAMATELRKVGAEVEEGHDYIRITPPEKLNFAEIATYNDHRMAMCFSLVALSDTPVTILDPKCTAKTFPDYFEQLARISQAA
B6: C219: E. coli EPSPS C-terminal fragment, residue 219 to C-terminus (protein, UniProt P0A6D3 219-427, looked up, fragment)
chain: HYQQFVVKGGQSYQSPGTYLVEGDASSASYFLAAAAIKGGTVKVTGIGRNSMQGDIRFADVLEKMGATICWGDDYISCTRGELNAIDMDMNHIPDAAMTIATAALFAKGTTTLRNIYNWRVKETDRLFAMATELRKVGAEVEEGHDYIRITPPEKLNFAEIATYNDHRMAMCFSLVALSDTPVTILDPKCTAKTFPDYFEQLARISQAA
B7: C105: E. coli EPSPS C-terminal fragment, residue 105 to C-terminus (protein, UniProt P0A6D3 105-427, looked up, fragment)
chain: ALCLGSNDIVLTGEPRMKERPIGHLVDALRLGGAKITYLEQENYPPLRLQGGFTGGNVDVDGSVSSQFLTALLMTAPLAPEDTVIRIKGDLVSKPYIDITLNLMKTFGVEIENQHYQQFVVKGGQSYQSPGTYLVEGDASSASYFLAAAAIKGGTVKVTGIGRNSMQGDIRFADVLEKMGATICWGDDYISCTRGELNAIDMDMNHIPDAAMTIATAALFAKGTTTLRNIYNWRVKETDRLFAMATELRKVGAEVEEGHDYIRITPPEKLNFAEIATYNDHRMAMCFSLVALSDTPVTILDPKCTAKTFPDYFEQLARISQAA
B8: N218: E. coli EPSPS N-terminal fragment, N-terminus to residue 218 (protein, UniProt P0A6D3 1-218, looked up, fragment)
chain: MESLTLQPIARVDGTINLPGSKSVSNRALLLAALAHGKTVLTNLLDSDDVRHMLNALTALGVSYTLSADRTRCEIIGNGGPLHAEGALELFLGNAGTAMRPLAAALCLGSNDIVLTGEPRMKERPIGHLVDALRLGGAKITYLEQENYPPLRLQGGFTGGNVDVDGSVSSQFLTALLMTAPLAPEDTVIRIKGDLVSKPYIDITLNLMKTFGVEIENQ
B9: N184: E. coli EPSPS N-terminal fragment, N-terminus to residue 184 (protein, UniProt P0A6D3 1-184, looked up, fragment)
chain: MESLTLQPIARVDGTINLPGSKSVSNRALLLAALAHGKTVLTNLLDSDDVRHMLNALTALGVSYTLSADRTRCEIIGNGGPLHAEGALELFLGNAGTAMRPLAAALCLGSNDIVLTGEPRMKERPIGHLVDALRLGGAKITYLEQENYPPLRLQGGFTGGNVDVDGSVSSQFLTALLMTAPLAP
B10: N104: E. coli EPSPS N-terminal fragment, N-terminus to residue 104 (protein, UniProt P0A6D3 1-104, looked up, fragment)
chain: MESLTLQPIARVDGTINLPGSKSVSNRALLLAALAHGKTVLTNLLDSDDVRHMLNALTALGVSYTLSADRTRCEIIGNGGPLHAEGALELFLGNAGTAMRPLAA
B11: N165: E. coli EPSPS N-terminal fragment, N-terminus to residue 165 (protein, UniProt P0A6D3 1-165, looked up, fragment)
chain: MESLTLQPIARVDGTINLPGSKSVSNRALLLAALAHGKTVLTNLLDSDDVRHMLNALTALGVSYTLSADRTRCEIIGNGGPLHAEGALELFLGNAGTAMRPLAAALCLGSNDIVLTGEPRMKERPIGHLVDALRLGGAKITYLEQENYPPLRLQGGFTGGNVDVD
B12: N182: E. coli EPSPS N-terminal fragment, N-terminus to residue 182 (protein, UniProt P0A6D3 1-182, looked up, fragment)
chain: MESLTLQPIARVDGTINLPGSKSVSNRALLLAALAHGKTVLTNLLDSDDVRHMLNALTALGVSYTLSADRTRCEIIGNGGPLHAEGALELFLGNAGTAMRPLAAALCLGSNDIVLTGEPRMKERPIGHLVDALRLGGAKITYLEQENYPPLRLQGGFTGGNVDVDGSVSSQFLTALLMTAPL
B13: N154: E. coli EPSPS N-terminal fragment, N-terminus to residue 154 (protein, UniProt P0A6D3 1-154, looked up, fragment)
chain: MESLTLQPIARVDGTINLPGSKSVSNRALLLAALAHGKTVLTNLLDSDDVRHMLNALTALGVSYTLSADRTRCEIIGNGGPLHAEGALELFLGNAGTAMRPLAAALCLGSNDIVLTGEPRMKERPIGHLVDALRLGGAKITYLEQENYPPLRLQ
B14: N85: E. coli EPSPS N-terminal fragment, N-terminus to residue 85 (protein, UniProt P0A6D3 1-85, looked up, fragment)
chain: MESLTLQPIARVDGTINLPGSKSVSNRALLLAALAHGKTVLTNLLDSDDVRHMLNALTALGVSYTLSADRTRCEIIGNGGPLHAE

The molecules below were run on aroA gene-mutant E. coli strain AB2829 (assay: In vivo complementation: growth on solid M63 restrictive medium). Conditions: C-terminal fragment alone.
Format: cell-based
Parameters: key: −: failed to grow; +: able to grow
Description: The pKU2100 plasmid constructed as described above and corresponding pACYC1184 plasmid were introduced separately or together into the strain AB2829 deficient in E. coli aroA gene. Then, the strain was streaked on solid M63 restrictive medium and cultured overnight to determine the growth.
In order to test if EPSPS achieves fragment complementation after in vivo expression, genes encoding EPSPS N-terminal peptides were constructed into pACYC184, and genes encoding EPSPS C-terminal peptides were constructed into pBR322 (see the section Materials and Methods for the detailed construction method). Afterwards, these plasmids were introduced into aroA gene-mutant E. coli strain AB2829. EPSPS activity of the protein fragments encoded by these genes was determined by the growth of the strains on M63 restrictive medium.
The pACYC184 and pBR322 plasmids are able to be expressed in the same bacterial cell since they have replicons p15A and ColE1 respectively. In this regard, a pACYC184 plasmid was co-introduced into aroA gene-mutant E. coli strain AB2829 together with a corresponding pKU2100 plasmid, wherein the N-terminal peptide encoded by the pACYC184 plasmid and C-terminal peptide encoded by the pKU2100 plasmid are the two fragments divided at the same site from EPSPS. The resulting strains are streaked on M63 restrictive medium, and cultured at 37° C.
The pBR322 plasmids constructed in section 3.5 a and their relevant pACYC1184 plasmids constructed in section 3.5 b were introduced respectively or together into E. coli strain AB2829 deficient in aroA gene. Then the strains were streaked on solid M63 restrictive medium and cultured overnight to test the growth.

Molecule	complementation condition, C-terminal
C372: E. coli EPSPS C-terminal fragment, residue 372 to C-terminus (EKLNFAEIATYNDHRMAMCFSLVALSDTPVTILDPKCTAKTFPDYFEQLARISQAA; UniProt P0A6D3 372-427, looked up, fragment)	−
C377: E. coli EPSPS C-terminal fragment, residue 377 to C-terminus (AEIATYNDHRMAMCFSLVALSDTPVTILDPKCTAKTFPDYFEQLARISQAA; UniProt P0A6D3 377-427, looked up, fragment)	−
C384: E. coli EPSPS C-terminal fragment, residue 384 to C-terminus (DHRMAMCFSLVALSDTPVTILDPKCTAKTFPDYFEQLARISQAA; UniProt P0A6D3 384-427, looked up, fragment)	−
B1	−
B2	−
B3	−
B4	−
B5	−
B6	−
B7	−

Same assay, conditions: N-terminal fragment alone

Molecule	complementation condition, N-terminal
N31: E. coli EPSPS N-terminal fragment, N-terminus to residue 31 (MESLTLQPIARVDGTINLPGSKSVSNRALLL; UniProt P0A6D3 1-31, looked up, fragment)	−
B8	−
B9	−
B10	−
B11	−
B12	−
B13	−
B14	−
